{"source": "patent US20210063414A1", "about": "“METHODS FOR PREVENTING AND/OR TREATING BONE LOSS CONDITIONS BY MODULATING IRISIN” (Dana-Farber Cancer Institute, Inc., priority 2018, published 2021)", "molecules": {"B1": {"name": "irisin: secreted cleaved form of FNDC5; recombinant human/mouse irisin with C-terminal his tag produced in HEK293 cells (protein)", "chain": "DSPSAPVNVTVRHLKANSAVVSWDVLEDEVVIGFAISQQKKDVRMLRFIQEVNTTTRSCALWDLEEDTEYIVHVQAISIQGQSPASEPVLFKTPREAEKMASKNKDEVTMKE", "modifications": "left off: small tags and cut ends", "notes": "secreted cleaved form of FNDC5; recombinant human/mouse irisin with C-terminal his tag produced in HEK293 cells"}}, "key": {"[1]": {"target": "T1, MLO-Y4 cell surface proteins (Mus musculus, UniProt P16460)", "T1 construct": "endogenous in cells; host or cells: MLO-Y4", "T1 sequence (P16460 1-412)": "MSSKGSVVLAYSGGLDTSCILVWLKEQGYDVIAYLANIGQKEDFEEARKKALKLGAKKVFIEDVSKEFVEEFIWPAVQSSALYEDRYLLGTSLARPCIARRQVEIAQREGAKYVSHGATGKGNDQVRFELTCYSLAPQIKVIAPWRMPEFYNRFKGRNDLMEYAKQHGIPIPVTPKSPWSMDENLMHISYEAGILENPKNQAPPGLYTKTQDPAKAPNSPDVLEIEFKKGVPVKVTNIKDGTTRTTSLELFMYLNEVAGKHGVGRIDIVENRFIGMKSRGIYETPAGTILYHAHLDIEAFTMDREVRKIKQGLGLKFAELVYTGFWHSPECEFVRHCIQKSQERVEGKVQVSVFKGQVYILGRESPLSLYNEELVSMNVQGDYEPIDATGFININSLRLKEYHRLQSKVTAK", "assay": "Crosslinking/co-immunoprecipitation/mass spectrometry (TMT quantitative proteomics) to identify irisin receptors", "format": "binding", "conditions": "co-precipitated protein Ass1 (ASSY_MOUSE)", "how_it_was_run": "(§1)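 Mouse MLO-Y4 cells were switched to serum-free FreeStyle medium for 4 h, chilled, then exposed to 10 nM His-tagged irisin (or adipsin as control) for 20 min. Cells were crosslinked with 1.5 mM DTSSP (30 min, ice), and bound proteins were pulled down on Ni-NTA and eluted with 250 mM imidazole. Eluates were separated by SDS-PAGE, trypsin-digested in gel, TMT 6-plex labelled and quantified by MS3-based LC-MS/MS on an Orbitrap Fusion Lumos.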"}, "[2]": {"target": "T2, MLO-Y4 cell surface proteins (Mus musculus, UniProt P97350)", "T2 construct": "endogenous in cells; host or cells: MLO-Y4", "T2 sequence (P97350 1-728)": "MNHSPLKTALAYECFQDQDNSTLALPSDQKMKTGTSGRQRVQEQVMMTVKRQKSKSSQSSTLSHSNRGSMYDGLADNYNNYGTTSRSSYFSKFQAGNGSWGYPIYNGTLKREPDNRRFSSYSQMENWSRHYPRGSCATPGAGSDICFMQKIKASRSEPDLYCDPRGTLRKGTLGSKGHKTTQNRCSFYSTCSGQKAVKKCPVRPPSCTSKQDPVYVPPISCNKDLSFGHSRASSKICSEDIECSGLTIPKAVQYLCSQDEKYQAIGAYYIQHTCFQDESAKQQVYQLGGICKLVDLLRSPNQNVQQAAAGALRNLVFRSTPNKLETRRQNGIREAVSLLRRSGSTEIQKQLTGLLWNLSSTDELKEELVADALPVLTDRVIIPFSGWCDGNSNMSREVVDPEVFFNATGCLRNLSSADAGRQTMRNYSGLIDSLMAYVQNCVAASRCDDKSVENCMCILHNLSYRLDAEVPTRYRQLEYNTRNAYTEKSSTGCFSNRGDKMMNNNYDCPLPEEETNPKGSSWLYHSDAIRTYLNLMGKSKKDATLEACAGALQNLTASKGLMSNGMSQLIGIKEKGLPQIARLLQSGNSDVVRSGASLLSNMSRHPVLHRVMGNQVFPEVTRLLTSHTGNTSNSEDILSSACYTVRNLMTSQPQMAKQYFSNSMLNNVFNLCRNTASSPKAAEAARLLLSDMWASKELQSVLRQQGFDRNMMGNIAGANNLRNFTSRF", "assay": "Crosslinking/co-immunoprecipitation/mass spectrometry (TMT quantitative proteomics) to identify irisin receptors", "format": "binding", "conditions": "co-precipitated protein Pkp1 (PKP1_MOUSE)", "how_it_was_run": "as §1"}}, "data": [{"molecule": "B1", "values": [{"measurement": "TMT signal-to-noise ratio", "setting": "[1]", "result": 3.2933}, {"measurement": "irisin/adipsin TMT signal-to-noise ratio", "setting": "[1]", "result": 0.012}, {"measurement": "TMT signal-to-noise ratio", "setting": "[2]", "result": 8.015}, {"measurement": "irisin/adipsin TMT signal-to-noise ratio", "setting": "[2]", "result": 0.082}]}]}
